For experiment [1], the target named is T1, human DR4 (Death Receptor 4), cell surface expressed on human tumor cell lines (human, UniProt O00220 24-468).
T1 construct: also called TNFRSF10A; TRAIL-R1
T1 sequence: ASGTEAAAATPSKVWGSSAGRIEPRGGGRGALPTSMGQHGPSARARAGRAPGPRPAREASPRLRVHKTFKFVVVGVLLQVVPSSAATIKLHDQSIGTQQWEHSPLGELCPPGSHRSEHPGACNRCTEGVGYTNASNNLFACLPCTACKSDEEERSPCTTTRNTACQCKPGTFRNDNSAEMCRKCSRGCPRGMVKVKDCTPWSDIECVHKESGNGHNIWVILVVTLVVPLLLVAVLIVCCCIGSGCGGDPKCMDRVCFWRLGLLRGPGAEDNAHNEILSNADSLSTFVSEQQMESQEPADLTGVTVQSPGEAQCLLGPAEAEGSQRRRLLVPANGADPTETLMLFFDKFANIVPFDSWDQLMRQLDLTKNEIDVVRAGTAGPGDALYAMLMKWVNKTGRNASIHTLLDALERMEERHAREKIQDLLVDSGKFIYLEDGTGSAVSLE
Description: flow cytometry, DLD-1 cells, average ± SEM. (In general: Flow cytometry measures light scatter and fluorescence of single cells or particles in a stream.)

Experiment [2] deals with T2, human FAPα (Fibroblast activation protein alpha), cell surface expressed (human, UniProt Q12884 1-760).
T2 construct: Endogenous on human lung fibroblasts and CAFs
T2 sequence: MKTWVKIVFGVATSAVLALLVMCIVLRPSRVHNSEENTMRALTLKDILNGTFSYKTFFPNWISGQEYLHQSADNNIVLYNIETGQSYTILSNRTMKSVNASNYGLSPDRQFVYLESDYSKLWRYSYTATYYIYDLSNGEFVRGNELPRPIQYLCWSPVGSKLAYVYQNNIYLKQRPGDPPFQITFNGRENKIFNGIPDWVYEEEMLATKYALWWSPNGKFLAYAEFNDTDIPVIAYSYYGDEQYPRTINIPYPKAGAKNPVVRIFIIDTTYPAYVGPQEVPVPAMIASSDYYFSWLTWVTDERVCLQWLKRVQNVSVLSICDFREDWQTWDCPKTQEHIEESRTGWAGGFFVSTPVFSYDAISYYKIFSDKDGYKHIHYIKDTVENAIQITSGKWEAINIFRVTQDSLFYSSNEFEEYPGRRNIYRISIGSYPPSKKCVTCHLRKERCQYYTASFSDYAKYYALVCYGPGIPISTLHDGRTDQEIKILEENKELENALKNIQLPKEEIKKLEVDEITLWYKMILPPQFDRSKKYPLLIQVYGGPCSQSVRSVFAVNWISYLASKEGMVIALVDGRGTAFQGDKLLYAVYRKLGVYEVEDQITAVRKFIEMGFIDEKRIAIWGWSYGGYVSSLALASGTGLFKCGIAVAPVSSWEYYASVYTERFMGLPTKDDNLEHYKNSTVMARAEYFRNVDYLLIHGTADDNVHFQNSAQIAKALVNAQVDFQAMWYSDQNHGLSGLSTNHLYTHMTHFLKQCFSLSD
Description: flow cytometry, human lung fibroblasts, average ± SEM. As for the experimental part:
Binding of bispecific or monoclonal antibodies carrying the anti-FAPα arm derived from IgG1-FAPα-FERL (BisG1-FAPα-FERL/DR4-FERR, BisG1-FAPα-FERL/b12-FERR, and IgG1-FAPα-FERL) to cell surface expressed human FAPα was analyzed by flow cytometry using human lung fibroblasts and CAFs, which endogenously express FAPα. BisG1-b12-FERL/b12-FERR was used as negative control.
Human lung fibroblasts and CAFs (50,000 cells/well) were seeded in 96-Well round bottom plates (Greiner Bio-one, Cat #650101). Antibody dilutions were prepared using fluorescence-activated cell sorting (FACS) buffer, consisting of phosphate buffer saline (PBS, Lonza, Cat #BE17-517Q)+1% Bovine Serum Albumin (BSA, Roche, Cat #10735086001)+0.02% Sodium Azide (Bio-World, Cat #41920044-3). Plates were centrifuged, supernatant was removed, cells were resuspended in 50 μL of human Fc Block (BD, Cat #564220, diluted 1:100 in FACS buffer) and 50 μL of viability stain TO-PRO-3 Iodide (Thermo Fisher, Cat #T3605, diluted 1: 25,000 in FACS buffer), and incubated for 15 min at 4° C. Plates were washed three times with FACS buffer. Plates were centrifuged, supernatant was removed, cells were resuspended in 50 μL of antibody dilutions (concentration range 90-0.0005 μg/mL, three-fold dilution steps using FACS buffer) of BisG1-FAPα-FERL/DR4-FERR, BisG1-FAPα-FERL/b12-FERR, BisG1-b12-FERL/b12-FERR (top six concentrations only for CAFs culture) or IgG1-FAPα-FERL (top four concentrations only for CAFs culture) and incubated for 30 min at 4° C. Cells were washed three times with FACS buffer and resuspended in 50 μL of Fluorescein isothiocyanate (FITC)-labeled polyclonal antibody goat anti-mouse IgG1 (Jackson Immuno Research, Cat #109-096-097, diluted 1:100 in FACS buffer). […] Antibody binding to viable cells (TO-PRO-3 negative) was analyzed by flow cytometry on a FACSCelesta™ (BD biosciences) and data were processed using FlowJo_v10.8.1 (FlowJo LLC). Geomean fluorescence intensity, gMFI, was determined and visualized using GraphPad Prism.

B1: BisG1-FAPα-FERL/DR4-FERR (bispecific antibody, human IgG1, kappa, lambda)
heavy 1: EVQLLESGGGLVQPGGSPRLSCEASGFTFSSYALSWVRQAPGKGLEWVSAISGSGGGRYYADSVKGRFTISRDNSKNTLFLQMNSLRAEDTAVYYCAKEGYSSSGTYWDHWGQGTLVTVSSASTKGPSVFPLAPSSKSTSGGTAALGCLVKDYFPEPVTVSWNSGALTSGVHTFPAVLQSSGLYSLSSVVTVPSSSLGTQTYICNVNHKPSNTKVDKRVEPKSCDKTHTCPPCPAPEFERGPSVFLFPPKPKDTLMISRTPEVTCVVVDVSHEDPEVKFNWYVDGVEVHNAKTKPREEQYNSTYRVVSVLTVLHQDWLNGKEYKCKVSNKALPAPIEKTISKAKGQPREPQVYTLPPSREEMTKNQVSLTCLVKGFYPSDIAVEWESNGQPENNYKTTPPVLDSDGSFLLYSKLTVDKSRWQQGNVFSCSVMHEALHNHYTQKSLSLSPG
light 1: AIQMTQSPSSVSASVGDRVTITCRASQGVSSWLAWYQQKPGRAPKLLIYVASTLQSGVPSRFSGSGSGTDFTLTINSLQPEDFATYYCQQANSFPPTFGQGTRLEMKRTVAAPSVFIFPPSDEQLKSGTASVVCLLNNFYPREAKVQWKVDNALQSGNSQESVTEQDSKDSTYSLSSTLTLSKADYEKHKVYACEVTHQGLSSPVTKSFNRGEC
heavy 2: QVQLQESGPGLVKPSGTLSLTCAVSGGSISSYSWWSWIRQPPGKGLEWIGELYHSGSTNYNPSLKSRVTISVDKSKNQFSLKLRSVTAADTAVYYCVRGVATIDYWGQGTLVTVSSASTKGPSVFPLAPSSKSTSGGTAALGCLVKDYFPEPVTVSWNSGALTSGVHTFPAVLQSSGLYSLSSVVTVPSSSLGTQTYICNVNHKPSNTKVDKRVEPKSCDKTHTCPPCPAPEFERGPSVFLFPPKPKDTLMISRTPEVTCVVVDVSHEDPEVKFNWYVDGVEVHNAKTKPREEQYNSTYRVVSVLTVLHQDWLNGKEYKCKVSNKALPAPIEKTISKAKGQPREPQVYTLPPSREEMTKNQVSLTCLVKGFYPSDIAVEWESNGQPENNYKTTPPVLDSDGSFFLYSRLTVDKSRWQQGNVFSCSVMHEALHNHYTQKSLSLSPG
light 2: QSALTQPPSASGSPGQSVTISCTGTSSDVGGYNFVSWYQQDPGKAPKLLIYEVTKRPSGVPDRFSGSKSGNTASLTVSGLQAEDEADYYCSSYAGSNNVMFGGGTKLTVLGQPKAAPSVTLFPPSSEELQANKATLVCLISDFYPGAVTVAWKADSSPVKAGVETTTPSKQSNNKYAASSYLSLTPEQWKSHRSYSCQVTHEGSTVEKTVAPTECS
notes: Human IgG1 bispecific made by controlled Fab-arm exchange of IgG1-FAPα-FERL and IgG1-DR4-FERR; monovalent for FAPα and for DR4; also called GEN1057
Consider B1, for which the EC50 in experiment [1] was 0.72 µg/mL; in experiment [2], 0.051 µg/mL.

As a reminder, the EC50 is the concentration at which the effect is half-maximal. Read a high EC50 as weaker potency.

The record behind these values is US20250002610A1 (Genmab, published 2025).
